# Reference: patent publication US9321838B2, “Therapy targeting cathepsin S” (Fusion Antibodies Limited, priority 2006, dated 2016)
# What was measured:
# [1] = tested on: HCT116+/+ human colorectal adenocarcinoma xenograft; test: HCT116+/+ xenograft model, immunohistochemistry of tumour sections; type: in vivo, SCID mice; details: CatS 1E11+5Fu (IC50) vs Mouse IgG1+5-Fu control
# Description: Briefly, sections were deparaffinised by passing from xylene to alcohol to running water. Endogenous peroxidase activity was blocked by incubation in 3% H2O2 in methanol for 10 min. Sections were then boiled in citrate buffer, pH6.0, for 22 min. Incubation in 5% normal horse serum blocking solution was carried out for 20 min at room temp. Sections were incubated with primary antibody at 4° C. overnight. Appropriate isotype controls were used at the same dilutions as primary antibodies. […]
# [2] = tested on: U251mg astrocytoma cell line; details: shown in co-pending WO2006/109045; cited from earlier work
# [3] = molecular target: T1, CatS on the cell surface of HCT116 cells (Homo sapiens, UniProt P25774); test: flow cytometry staining of HCT116 cells with CatS monoclonal antibody; type: binding; details: HCT116 cells stained for CatS
# T1 construct: CatS expression is localised to the cell surface on HCT116 cells; endogenous in cells; host or cells: HCT116
# Description: Cells were collected from tissue culture plates using a scraper and washed ×3 in PBS (0.01% tween) (5 minute centrifugation at 1500 rpm). Approximately 5×10^5 cells were placed in appropriately labelled tubes. Cells were incubated with 50 μl anti-CatS or Isotype control (Sigma, UK) for 1 hour at room temperature. Following incubation each tube was washed ×3 in PBS (0.01% tween) (5 minute centrifugation at 1500 rpm). Samples were then incubated with a 1 in 15 dilution of FITC-conjugated goat anti-mouse secondary antibody (Sigma, UK) (samples kept in dark at room temperature). Following incubation each tube was washed ×3 in PBS (0.01% tween) (5 minute centrifugation at 1500 rpm). Samples were resuspended in 0.5 ml of PBS prior to immediate analysis using the Cyan flow cytometer (Dako, UK).
# HCT116 cells were stained for CatS expression using a CatS monoclonal antibody as before. Cells were grown on glass coverslips, fixed using ice-cold acetone and incubated with CatS antibody at a 1:100 dilution. Coverslips were rinsed with PBS and incubated with antimouse AlexaFluor® 488 labelled secondary antibody. Coverslips were washed again using PBS, mounted using PermaFluor mounting media and visualised by confocal microscopy.
# The presence of Cathepsin S on the cell surface of tumour cells was further confirmed using confocal microscopy. […]
# [4] = examination of major mouse organs after treatment in xenograft model; type: in vivo, SCID mice
# Description: 6-8 week old female SCID mice were implanted with 2×10^6 HCT116+/+ human colorectal adenocarcinoma cells into each flank. […] They were mixed with equal volumes of matrigel to give a final concentration of 5×10^6 cells/ml. Mice were randomly separated into treatment groups on day 5 after implantation and treated with various regimes of CatS Mab or Isotype control Mab (10 mg/kg) with/without 5Fu (15 mg/kg daily or 70 mg/kg twice weekly). All drugs were administered through a bolus injection. Animals were sacrificed at various time points and tumours were removed for analysis.
# Paraffin embedding of formalin-fixed xenograft/organ tissue samples, section cutting and H&E (haematoxylin and eosin) staining of tissue sections were performed as previously described. Immunostaining was performed using the avidin-horseradish peroxidase method (Vectorlabs ABC Kit).
# All major mouse organs were examined for architectural changes following treatment.
# CatS [5] = molecular target: T2, CatS (Homo sapiens, UniProt P25774); test: fluorimetric assay of CatS proteolytic activity; type: biochemical
# Description: The ability of an agent, for example a small molecule or antibody, to inhibit the proteolytic activity of Cathepsin S may be tested using any suitable method. For example a fluorimetric assay may be used. In such an assay, any suitable fluorigenic substrate may be used, for example Cbz-Phe-Arg-AMC. An agent is considered to inhibit the proteolytic activity of Cathepsin S if it has the ability to inhibit its activity by a statistically significant amount. For example, in one embodiment, an agent for use as the Cathepsin S inhibitor is able to inhibit the […] activity by at least 10%, for example at least 25%, 50%, 70%, 80% or 90%, when compared to an appropriate control antibody.
# As shown in co-pending PCT application WO2006/109045, the contents of which are incorporated herein by reference, which claims priority from GB0507219.4 and GB0507272.3, this antibody has potent inhibitory activity.
# (§1) The F47 Cathepsin S 1C11 1E11 1E4 cell line which is the hybridoma cell line that produces the IE4 antibody has been deposited with the European Collection of Cell Cultures (“ECACC”) under Accession No. 15072905.
# [6] = tested on: human microvascular endothelial cells (HMECs); test: Matrigel capillary-like tube formation assay; type: cell-based
# Description: The effect of the CatS mAb on endothelial cell tube formation was assessed as follows. Two hundred microliter of Matrigel (10 mg/ml) was applied to pre-cooled 48-well plates, incubated for 10 min at 4° C. and then allowed to polymerize for 1 h at 37° C. Cells were suspended in endothelial growth cell medium MV (Promocell), containing 200 nM of the appropriate antibody. Five hundred microliter (1×10^5 cells) were added to each well. As controls, cells were incubated with vehicle-only control medium containing the appropriate volumes of PBS. After 24 h incubation at 37° C. and 5% CO2, cells were viewed using a Nikon Eclipse TE300 microscope.
# Using the Matrigel morphogenesis assay described by Grant et al (Cell 1989 Sep. 8; 58 (5): 933-43), capillary-tubule formation assays were performed with human microvascular endothelial cells (HMECs) cultured on Matrigel enabling the endothelial cells form tube-like structures, with invasive sprouts extending from individual cells to form contacts with nearby endothelial cells. FIG. 15a illustrates the results when the HMEC cells were cultured in the presence of two CatS antibodies (1E11 and 1E4) or isotype control.
# [7] = tested on: MDMB231 breast cancer cell line; details: shown in co-pending WO2006/109045; cited from earlier work
# CatS [8] = molecular target: T2, CatS; details: fluorigenic substrate; shown in co-pending WO2006/109045; cited from earlier work
# rat aortic ring segments = test: ex vivo rat aortic arch (ring) assay in Matrigel; type: cell-based
# Description: Male Wistar rats are euthanised and the thoracic aorta is aseptically removed and sectioned into […] thick rings. The rings are washed ten times in sterile medium to remove any bacteria and embedded into Matrigel on 24 well plates. The wells are supplemented with 2 ml of medium and increasing concentrations of antibodies. The plate is incubated for 8 days and post incubation the Matrigel and rings are fixed in 4% PBS buffered paraformaldehyde and stored in PBS. The extent of vessel development is blindly assessed microscopically by an independent investigator and quantified using a calibrated eyepiece graticule (1 mm/100 μm graduation) at 20× magnification (Olympus BX 50). The extent of vessel length, maximum vessel length and number of vessels in each field of view is measured and compared to time matched sham controls and the % inhibition calculated.
# To evaluate further the role of CatS in angiogenesis, an ex vivo rat aortic arch assay was performed. Sections of the aorta (1 mm) were cultured within a thin layer of Matrigel in the presence of the inhibitory antibody and appropriate controls. The formation of tube-like vessels from the aorta were monitored and quantified after 7 days by measuring the reduction in the number of vessels, mean vessel length and maximum vessel length compared to controls.
# [9] = tested on: PC3 prostate carcinoma cell line; details: shown in co-pending WO2006/109045; cited from earlier work
# [10] = tested on: HCT116 colorectal carcinoma cell line; details: shown in co-pending WO2006/109045; cited from earlier work
# other cathepsins = test: binding specificity / cross-reactivity with other cathepsins; details: in particular those with the greatest homology to CatS
# Description: as §1
# [11] = tested on: MCF 7 breast cancer cell line; details: shown in co-pending WO2006/109045; cited from earlier work
# [12] = repeat experiment, up to 10 μg/ml
# T2 sequence (P25774 115-331): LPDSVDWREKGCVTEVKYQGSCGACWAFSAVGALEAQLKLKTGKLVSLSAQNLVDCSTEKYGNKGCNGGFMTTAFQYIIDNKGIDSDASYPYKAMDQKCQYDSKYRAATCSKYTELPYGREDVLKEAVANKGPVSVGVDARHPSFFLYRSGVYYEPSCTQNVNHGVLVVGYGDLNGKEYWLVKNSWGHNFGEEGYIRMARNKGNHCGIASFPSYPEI
# T1 sequence (P25774 115-331): as above
molecule,measurement,setting,value
"1E11: Cathepsin S inhibitory monoclonal antibody; VH Seq ID No: 7, VL Seq ID No: 8, CDRs Seq ID Nos: 1-6 (antibody, listed as Mus musculus, V domains shown, VH domain amino acid sequence; VL domain amino acid sequence) VH: VQLQESGGVLVKPGGSLKLSCAASGFAFSSYDMSWVRQTPEKRLEWVAYITTGGVNTYYPDTVKGRFTISRDNAKNTLYLQMSSLKSEDTAMYYCARHSYFDYWGQGTTVTVSS VL: DVLMTQTPLSLPVSLGDQASISCRSSQSLVHSNGNTYLHWYLQKPGQSPKLLIYKVSNRFSGVPDRFSGSGSGTDFTLKISRVEAEDLGVYFCSQTTHVPPTFGSGTKLEIKR",caspase 3 activity in tumour tissue (anti-cleaved caspase-3 staining),[1],increase in caspase 3 activity
same,inhibition of tumour cell invasion,[2],potently inhibit tumour cell invasion
same,increase in fluorescent intensity in comparison to the isotype control,[3],38%
same,architectural / pathological change of major mouse organs,[4]; nine-day drug regime CatS 1E11+5Fu (IC50),No signs of pathological change
same,adverse toxic effect,[4]; repeated treatment with 10 mg/kg in combination with chemotherapy,no adverse toxic effect
same,ability to inhibit the catalytic activity of CatS,CatS [5],can specifically inhibit the activity of CatS
same,tube formation of HMEC cells on Matrigel,"[6]; antibody 200 nM, 24 h, vs vehicle-only and isotype control",almost completely abolished
same,capillary tubule formation in Matrigel assay,"[6]; summary statement, no concentration given",inhibit capillary tubule formation
same,inhibition of tumour cell invasion,[7],potently inhibit tumour cell invasion
same,inhibition of proteolytic activity of CatS,CatS [8],inhibits the proteolytic activity of CatS
same,reduction in maximum vessel length,rat aortic ring segments; [12],60%
same,reduction in mean vessel length,rat aortic ring segments; [12],60%
same,reduction in total vessel number,rat aortic ring segments; [12],70%
same,reduction in maximum vessel length,rat aortic ring segments; up to 600 nM,greater than 80%
same,reduction in mean vessel length,rat aortic ring segments; up to 600 nM,greater than 80%
same,reduction in total vessel number,rat aortic ring segments; up to 600 nM,greater than 80%
same,inhibition of tumour cell invasion,[9],potently inhibit tumour cell invasion
same,inhibition of tumour cell invasion,[10],potently inhibit tumour cell invasion
same,cross-reactivity with other cathepsins,other cathepsins,no cross-reactivity with other cathepsins
same,inhibition of tumour cell invasion,[11],potently inhibit tumour cell invasion
